Experimental data taken from patent US20250011363A1, “OPTIMIZED SHORTENED PEPTIDE THAT BINDS TO ACETYLCHOLINE RECEPTOR, AND USE THEREOF” (SKINMED CO., LTD., priority 2021, published 2025).

Target: acetylcholine receptor
Experiment: SPR, acetylcholine receptor on CM5 chip, peptide 10 µM

Compared with KGQLRR [6mer-2-559], RSICKK [6mer-2-556] is higher in Binding affinity (RU): 121 RU for the first, 148 RU for the second.

Going from RQYTRR [6mer-2-560] to KRVQRR [6mer-2-577], the Binding affinity (RU) falls from 153 RU to 139 RU.

Going from RGYSRK [6mer-2-575] to RGLLRR [6mer-2-552], the Binding affinity (RU) rises from 139 RU to 148 RU.

Going from RQQRKR [6mer-2-562] to KGFQKK [6mer-2-568], the Binding affinity (RU) rises from 136 RU to 142 RU.

First: RRRYRK [6mer-2-599]
Second: RWQLRK [6mer-2-569]
The Binding affinity (RU) of the first is lower: 121 RU for the first, 135 RU for the second.

First: KWYTKK [6mer-2-539]
Second: KGVSRR [6mer-2-576]
The Binding affinity (RU) of the first is lower: 127 RU for the first, 139 RU for the second.

Compared with KGIQKK [6mer-2-596], RWRCRR [6mer-2-554] is lower in Binding affinity (RU): 153 RU for the first, 121 RU for the second.

Going from KRLSKK [6mer-2-566] to KGQCRK [6mer-2-541], the Binding affinity (RU) falls from 139 RU to 126 RU.

Compared with KWQQRR [6mer-2-580], RSQLKK [6mer-2-600] is higher in Binding affinity (RU): 121 RU for the first, 139 RU for the second.

First: RLQCRR [6mer-2-548]
Second: KVIQKR [6mer-2-544]
The Binding affinity (RU) of the first is lower: 142 RU for the first, 147 RU for the second.

First: RVYYKR [6mer-2-570]
Second: RWQRKK [6mer-2-536]
The Binding affinity (RU) of the first is higher: 148 RU for the first, 125 RU for the second.

Compared with KSVTKK [6mer-2-583], RWVLRK [6mer-2-592] is lower in Binding affinity (RU): 154 RU for the first, 122 RU for the second.

Going from KLRCKK [6mer-2-595] to RSFTKK [6mer-2-550], the Binding affinity (RU) falls from 154 RU to 148 RU.

Going from RVFTKK [6mer-2-546] to KSQRRK [6mer-2-572], the Binding affinity (RU) rises from 127 RU to 148 RU.

First: KLYYRK [6mer-2-567]
Second: KQFLRK [6mer-2-597]
The Binding affinity (RU) of the first is lower: 146 RU for the first, 154 RU for the second.

First: KWFYKK [6mer-2-588]
Second: KSVCKK [6mer-2-558]
The Binding affinity (RU) of the first is lower: 149 RU for the first, 154 RU for the second.

Compared with KVLCKR [6mer-2-537], RQIYRR [6mer-2-542] is lower in Binding affinity (RU): 153 RU for the first, 148 RU for the second.

Going from RSVLRK [6mer-2-578] to RWQQRK [6mer-2-589], the Binding affinity (RU) rises from 135 RU to 153 RU.

Going from KRLTRK [6mer-2-584] to RWLSRK [6mer-2-586], the Binding affinity (RU) falls from 148 RU to 121 RU.

First: RRVLKK [6mer-2-561]
Second: KQFCKK [6mer-2-538]
The Binding affinity (RU) of the first is higher: 142 RU for the first, 125 RU for the second.

Compared with KSRRRR [6mer-2-565], KLFCRR [6mer-2-535] is lower in Binding affinity (RU): 147 RU for the first, 133 RU for the second.

KGILRR [6mer-2-591] and KVFRRR [6mer-2-598] are the same in Binding affinity (RU): 146 RU for the first, 146 RU for the second.

Compared with KWVLRK [6mer-2-557], RSLQKK [6mer-2-553] is higher in Binding affinity (RU): 123 RU for the first, 124 RU for the second.

First: KWYTKR [6mer-2-551]
Second: RWYRRR [6mer-2-594]
The Binding affinity (RU) of the first is higher: 141 RU for the first, 139 RU for the second.

First: RSQLKR [6mer-2-593]
Second: KLYLRR [6mer-2-573]
The Binding affinity (RU) of the first is higher: 139 RU for the first, 121 RU for the second.

KGRLRK [6mer-2-590] and KRISKR [6mer-2-587] are the same in Binding affinity (RU): 148 RU for the first, 148 RU for the second.

Going from KRLTRR [6mer-2-540] to RWQTRK [6mer-2-582], the Binding affinity (RU) rises from 142 RU to 148 RU.

First: RVQQKR [6mer-2-581]
Second: RSVSKK [6mer-2-555]
The Binding affinity (RU) of the first is lower: 139 RU for the first, 154 RU for the second.

First: RGYQRR [6mer-2-571]
Second: KGYQKR [6mer-2-563]
The Binding affinity (RU) of the first is higher: 135 RU for the first, 131 RU for the second.

First: RSFRRK [6mer-2-585]
Second: RWQYRK [6mer-2-579]
The Binding affinity (RU) of the first is higher: 136 RU for the first, 135 RU for the second.

First: KQLCKK [6mer-2-549]
Second: KLYCRK [6mer-2-545]
The Binding affinity (RU) of the first is higher: 142 RU for the first, 125 RU for the second.

First: RRQYRR [6mer-2-543]
Second: KQVYRK [6mer-2-564]
The Binding affinity (RU) of the first is lower: 144 RU for the first, 148 RU for the second.

Compared with RWQCKR [6mer-2-547], KGVYRK [6mer-2-574] is higher in Binding affinity (RU): 135 RU for the first, 153 RU for the second.

Target: acetylcholine receptor
Experiment: SPR, AchR on CM5 chip, peptide 10 µM

First: KKCMKR [6mer-1-1190]
Second: RKDDDR [6mer-1-1192]
The Binding affinity (RU) of the first is lower: 29 RU for the first, 36 RU for the second.

First: KKTHAK [6mer-1-1194]
Second: KRPMAK [6mer-1-1197]
The Binding affinity (RU) of the first is higher: 22 RU for the first, 21 RU for the second.

KRDEDK [6mer-1-1195] and KKTTGR [6mer-1-1196] are the same in Binding affinity (RU): 25 RU for the first, 25 RU for the second.

Compared with KKPTNK [6mer-1-1193], RKYTKK [6mer-1-1191] is higher in Binding affinity (RU): 33 RU for the first, 39 RU for the second.

Target: acetylcholine receptor
Experiment: SPR, acetylcholine receptor immobilized on CM5 chip, peptide at 10 uM

Compared with RYTFR [5mer-899], KNNNR [5mer-1199] is lower in Binding affinity (RU): 31 RU for the first, 29 RU for the second.

Going from RKNEK [5mer-1200] to RHSVK [5mer-900], the Binding affinity (RU) rises from 16 RU to 29 RU.
